B1: SARS-CoV-2 envelope (E) protein C-terminal 18-amino acid peptide (Ec18) (peptide)
peptide: VYSRVKNLNSSRVPDLLV
notes: SARS-CoV-2 envelope (E) protein, 75 residues; also called E C-terminal peptide
B2: PALS1 PSG (PDZ, SH3 and GK domains; residues 236–675 with a deletion between 411–460) (domain or fragment, human, UniProt Q8N3R9 236-675, looked up)
chain: PITDERVYESIGQYGGETVKIVRIEKARDIPLGATVRNEMDSVIISRIVKGGAAEKSGLLHEGDEVLEINGIEIRGKDVNEVFDLLSDMHGTLTFVLIPSQQIKPPPAKETVIHVKAHFDYDPSDDPYVPCRELGLSFQKGDILHVISQEDPNWWQAYREGDEDNQPLAGLVPGKEEILTYEEMSLYHQPANRKRPIILIGPQNCGQNELRQRLMNKEKDRFASAVPHTTRSRRDQEVAGRDYHFVSRQAFEADIAAGKFIEHGEFEKNLYGTSIDSVRQVINSGKICLLSLRTQSLKTLRNSDLKPYIIFIAPPSQERLRALLAKEGKNPKPEELREIIEKTREMEQNNGHYFDTAIVNSDLDKAYQELLRLINKLDTEPQWVPSTWLR
modifications: covalently labeled with dye NT647 (in the MST measurement only)
notes: PALS1, human cell junction protein; PDZ, SH3 and GK domains (PSG), residues 236–675, without the loop between the SH3 and GK domains (deletion between 411–460); codon-optimised synthetic gene in pET16-b; also called PASL1–PSG domains; source: E. coli BL21 (DE3) pLysS, purified (Ni-NTA, TEV cleavage, second Ni-NTA, SEC); not shown: 10x His, N-terminal, cleaved

Experiments:
[1] = biological target: B2; test: MST; […]; 50 mM Tris pH 7.5, 100 mM NaCl, 1 mM DTT, 1 mM EDTA, 0.05% Tween 20; 10 min at room temperature; […]; conditions: both partners purified
[2] = biological target: the molecule itself; test: SEC; purified PSG on a TSKgel G3000SW column in 25 mM Tris pH 7.5, 100 mM NaCl, 1 mM TCEP

| Binder | Kd [1] | stoichiometry N [2] |
| --- | --- | --- |
| B1 | 11.2 µM | – |
| B2 | – | 2 |

From article PMC8187709, “Structural basis for SARS-CoV-2 envelope protein recognition of human cell junction protein PALS1” (Nature Communications, 2021)
